Data published in PMC9482650, “Quantitative fragmentomics allow affinity mapping of interactomes” (Nature Communications, 2022).

T1: PCLO, Q9Y6V0
T1 sequence (Q9Y6V0 4491-4600, limits assumed, looked up): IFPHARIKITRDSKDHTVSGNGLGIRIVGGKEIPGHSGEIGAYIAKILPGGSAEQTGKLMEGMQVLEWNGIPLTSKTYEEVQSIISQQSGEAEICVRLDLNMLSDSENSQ

T2: PARD3B_1, Q8TEW8
T2 sequence (Q8TEW8 196-299, limits assumed, looked up): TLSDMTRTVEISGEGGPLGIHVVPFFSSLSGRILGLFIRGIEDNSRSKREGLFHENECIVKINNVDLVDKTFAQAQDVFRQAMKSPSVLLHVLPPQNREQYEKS

T3: ARHGEF11, O15085
T3 sequence (O15085 42-136, limits assumed, looked up): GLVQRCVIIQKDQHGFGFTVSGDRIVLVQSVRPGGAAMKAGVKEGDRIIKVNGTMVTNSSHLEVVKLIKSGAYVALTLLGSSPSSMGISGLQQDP

T4: SNTG1, Q9NSN8
T4 sequence (Q9NSN8 52-150, limits assumed, looked up): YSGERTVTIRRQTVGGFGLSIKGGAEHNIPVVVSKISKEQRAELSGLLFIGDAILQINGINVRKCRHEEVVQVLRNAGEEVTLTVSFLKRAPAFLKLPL

T5: HTRA4, P83105
T5 sequence (P83105 378-476, limits assumed, looked up): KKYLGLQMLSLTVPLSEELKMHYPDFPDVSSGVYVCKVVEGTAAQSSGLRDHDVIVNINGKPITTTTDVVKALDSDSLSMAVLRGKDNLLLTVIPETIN

T6: LNX2_3, Q8N448
T6 sequence (Q8N448 463-564, limits assumed, looked up): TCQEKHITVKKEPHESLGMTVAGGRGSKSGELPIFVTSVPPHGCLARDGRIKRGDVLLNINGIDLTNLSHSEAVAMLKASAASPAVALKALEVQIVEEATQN

T7: SNTG2, Q9NY99
T7 sequence (Q9NY99 68-166, limits assumed, looked up): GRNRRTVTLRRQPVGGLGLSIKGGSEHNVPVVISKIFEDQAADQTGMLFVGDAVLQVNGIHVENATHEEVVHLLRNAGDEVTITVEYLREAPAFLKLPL

T8: SNTA1, Q13424
T8 sequence (Q13424 82-180, limits assumed, looked up): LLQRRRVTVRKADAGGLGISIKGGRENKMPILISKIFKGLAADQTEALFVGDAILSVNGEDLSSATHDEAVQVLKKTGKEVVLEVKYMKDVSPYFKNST

T9: SYNJ2BP, P57105
T9 sequence (P57105 8-110, limits assumed, looked up): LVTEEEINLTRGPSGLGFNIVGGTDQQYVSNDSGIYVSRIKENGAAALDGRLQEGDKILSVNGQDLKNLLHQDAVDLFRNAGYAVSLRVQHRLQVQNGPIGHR

T10: HTRA3, P83110
T10 sequence (P83110 354-453, limits assumed, looked up): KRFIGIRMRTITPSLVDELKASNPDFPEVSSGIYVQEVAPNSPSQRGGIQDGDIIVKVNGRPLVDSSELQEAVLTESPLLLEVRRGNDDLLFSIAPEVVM

T11: SIPA1L2, Q9P2F8
T11 sequence (Q9P2F8 945-1036, limits assumed, looked up): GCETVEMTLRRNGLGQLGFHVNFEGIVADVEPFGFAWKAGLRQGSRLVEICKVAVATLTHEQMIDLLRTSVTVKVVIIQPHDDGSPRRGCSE

T12: MPP7, Q5T2T1
T12 sequence (Q5T2T1 134-230, limits assumed, looked up): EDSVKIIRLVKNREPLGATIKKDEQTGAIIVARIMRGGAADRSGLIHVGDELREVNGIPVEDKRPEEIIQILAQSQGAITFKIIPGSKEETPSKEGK


Legend:
Assay in all cases: holdup assay
Parameters in all cases: key: below the threshold = too weak to quantify, mostly under pKd 3.1 to 4
Conditions in all cases: plain residues with an end cap or a label only (N-terminal biotin on a linker: ado-ado)
MAGI2_5, Q86UL8 = target: MAGI2_5, Q86UL8
PCLO, Q9Y6V0 = target: T1, PCLO, Q9Y6V0
PARD3B_1, Q8TEW8 = target: T2, PARD3B_1, Q8TEW8
TJP1_2, Q07157 = target: TJP1_2, Q07157
ARHGEF11, O15085 = target: T3, ARHGEF11, O15085
SNTG1, Q9NSN8 = target: T4, SNTG1, Q9NSN8
HTRA4, P83105 = target: T5, HTRA4, P83105
Inadl_9, Q8NI35 = target: Inadl_9, Q8NI35
NHERF4_1, Q86UT5-2 = target: NHERF4_1, Q86UT5-2
Inadl_3, Q8NI35 = target: Inadl_3, Q8NI35
LNX2_3, Q8N448 = target: T6, LNX2_3, Q8N448
SNTG2, Q9NY99 = target: T7, SNTG2, Q9NY99
SNTA1, Q13424 = target: T8, SNTA1, Q13424
Inadl_4, Q8NI35 = target: Inadl_4, Q8NI35
PARD3_3, Q8TEW0 = target: PARD3_3, Q8TEW0
IL16_1, Q14005 = target: IL16_1, Q14005
SCRIB_2, Q14160 = target: SCRIB_2, Q14160
ARHGEF12, Q9NZN5-2 = target: ARHGEF12, Q9NZN5-2
NHERF2_2, Q15599 = target: NHERF2_2, Q15599
SYNJ2BP, P57105 = target: T9, SYNJ2BP, P57105
HTRA3, P83110 = target: T10, HTRA3, P83110
SIPA1L2, Q9P2F8 = target: T11, SIPA1L2, Q9P2F8
DLG2_2, Q15700 = target: DLG2_2, Q15700
MAST1, Q9Y2H9 = target: MAST1, Q9Y2H9
NOS1, P29475 = target: NOS1, P29475
MPP7, Q5T2T1 = target: T12, MPP7, Q5T2T1

Chain of Inadl_9, Q8NI35 (Q8NI35 1530-1615): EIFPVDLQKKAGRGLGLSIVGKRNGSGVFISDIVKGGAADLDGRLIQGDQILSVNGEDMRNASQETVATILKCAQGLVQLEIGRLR
Chain of MAST1, Q9Y2H9 (Q9Y2H9 962-1065): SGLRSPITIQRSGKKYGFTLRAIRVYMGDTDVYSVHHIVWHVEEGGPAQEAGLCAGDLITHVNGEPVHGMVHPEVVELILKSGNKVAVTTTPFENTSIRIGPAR
Chain of IL16_1, Q14005 (Q14005 210-306): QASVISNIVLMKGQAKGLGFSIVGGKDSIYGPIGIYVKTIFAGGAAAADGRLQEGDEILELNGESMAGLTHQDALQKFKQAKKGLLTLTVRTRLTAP
Chain of DLG2_2, Q15700 (Q15700 189-283): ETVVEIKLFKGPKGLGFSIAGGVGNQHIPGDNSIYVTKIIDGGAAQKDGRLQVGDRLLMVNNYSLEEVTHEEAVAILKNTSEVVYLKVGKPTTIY
Chain of PARD3_3, Q8TEW0 (Q8TEW0 582-685): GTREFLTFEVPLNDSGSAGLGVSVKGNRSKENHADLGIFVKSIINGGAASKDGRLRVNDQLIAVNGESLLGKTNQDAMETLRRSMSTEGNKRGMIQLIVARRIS
Chain of NHERF4_1, Q86UT5-2 (Q86UT5 other isoform, or with tags, fused parts or gaps): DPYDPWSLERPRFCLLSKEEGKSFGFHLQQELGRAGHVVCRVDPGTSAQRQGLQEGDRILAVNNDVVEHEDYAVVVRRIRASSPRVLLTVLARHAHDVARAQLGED
Chain of ARHGEF12, Q9NZN5-2 (Q9NZN5 other isoform, or with tags, fused parts or gaps): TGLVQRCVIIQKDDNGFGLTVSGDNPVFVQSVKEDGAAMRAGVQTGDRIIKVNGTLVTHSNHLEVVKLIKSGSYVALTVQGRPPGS
Chain of NOS1, P29475 (P29475 9-101): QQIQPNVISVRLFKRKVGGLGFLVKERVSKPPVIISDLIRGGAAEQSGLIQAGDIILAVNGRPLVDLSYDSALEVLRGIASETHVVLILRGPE
Chain of Inadl_4, Q8NI35 (Q8NI35 547-651): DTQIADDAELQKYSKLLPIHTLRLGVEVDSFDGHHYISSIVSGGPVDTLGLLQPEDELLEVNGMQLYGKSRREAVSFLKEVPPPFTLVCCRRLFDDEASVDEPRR
Chain of SCRIB_2, Q14160 (Q14160 857-960): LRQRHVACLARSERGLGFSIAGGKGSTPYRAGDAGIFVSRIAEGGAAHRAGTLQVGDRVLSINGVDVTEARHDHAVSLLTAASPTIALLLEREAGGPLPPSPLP
Chain of Inadl_3, Q8NI35 (Q8NI35 359-469): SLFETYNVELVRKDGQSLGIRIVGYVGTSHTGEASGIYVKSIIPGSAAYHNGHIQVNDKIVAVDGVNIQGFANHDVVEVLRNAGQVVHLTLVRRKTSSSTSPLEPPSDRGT
Chain of MAGI2_5, Q86UL8 (Q86UL8 915-1017): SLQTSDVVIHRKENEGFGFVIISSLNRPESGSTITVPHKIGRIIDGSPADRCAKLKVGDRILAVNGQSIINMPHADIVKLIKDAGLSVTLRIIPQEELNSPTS
Chain of TJP1_2, Q07157 (Q07157 181-274): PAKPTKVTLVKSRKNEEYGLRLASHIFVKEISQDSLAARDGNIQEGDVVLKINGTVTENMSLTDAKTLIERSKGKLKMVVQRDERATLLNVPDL
Chain of NHERF2_2, Q15599 (Q15599 142-238): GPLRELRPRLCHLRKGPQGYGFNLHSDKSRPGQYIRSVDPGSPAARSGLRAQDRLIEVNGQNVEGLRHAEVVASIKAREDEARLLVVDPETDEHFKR

Binder	pKd (MAGI2_5, Q86UL8)	pKd (PCLO, Q9Y6V0)	pKd (PARD3B_1, Q8TEW8)	pKd (TJP1_2, Q07157)	pKd (ARHGEF11, O15085)	pKd (SNTG1, Q9NSN8)	pKd (HTRA4, P83105)	pKd (Inadl_9, Q8NI35)	pKd (NHERF4_1, Q86UT5-2)	pKd (Inadl_3, Q8NI35)	pKd (LNX2_3, Q8N448)	pKd (SNTG2, Q9NY99)	pKd (SNTA1, Q13424)	pKd (Inadl_4, Q8NI35)	pKd (PARD3_3, Q8TEW0)	pKd (IL16_1, Q14005)	pKd (SCRIB_2, Q14160)	pKd (ARHGEF12, Q9NZN5-2)	pKd (NHERF2_2, Q15599)	pKd (SYNJ2BP, P57105)	also measured
PAPSSGKDYV [CLDN1, O95832]	below the threshold	below the threshold	below the threshold	below the threshold	below the threshold	below the threshold	below the threshold	3.61	3.62	below the threshold	below the threshold	below the threshold	below the threshold	below the threshold	below the threshold	below the threshold	below the threshold	below the threshold	below the threshold	below the threshold	pKd (HTRA3, P83110): 3.95; pKd (SIPA1L2, Q9P2F8): below the threshold; pKd (DLG2_2, Q15700): below the threshold; pKd (MAST1, Q9Y2H9): 3.51; pKd (NOS1, P29475): 4.06; pKd (MPP7, Q5T2T1): below the threshold
SAKVRTVTSV [RASL11B, Q9BPW5]	below the threshold	below the threshold	below the threshold	below the threshold	4.45	3.62	4.06	below the threshold	3.77	below the threshold	below the threshold	3.6	below the threshold	below the threshold	below the threshold	below the threshold	below the threshold	4.68	below the threshold	4.95	pKd (HTRA3, P83110): below the threshold; pKd (SIPA1L2, Q9P2F8): below the threshold; pKd (DLG2_2, Q15700): 4.79; pKd (MAST1, Q9Y2H9): 4.77; pKd (NOS1, P29475): 3.9; pKd (MPP7, Q5T2T1): below the threshold

Second part, led by results:

pKd (MAGI2_5, Q86UL8)	pKd (PCLO, Q9Y6V0)	pKd (PARD3B_1, Q8TEW8)	pKd (TJP1_2, Q07157)	pKd (ARHGEF11, O15085)	pKd (SNTG1, Q9NSN8)	pKd (HTRA4, P83105)	pKd (Inadl_9, Q8NI35)	pKd (NHERF4_1, Q86UT5-2)	pKd (Inadl_3, Q8NI35)	pKd (LNX2_3, Q8N448)	pKd (SNTG2, Q9NY99)	pKd (SNTA1, Q13424)	pKd (Inadl_4, Q8NI35)	pKd (PARD3_3, Q8TEW0)	pKd (IL16_1, Q14005)	pKd (SCRIB_2, Q14160)	pKd (ARHGEF12, Q9NZN5-2)	pKd (NHERF2_2, Q15599)	pKd (SYNJ2BP, P57105)	Binder	also measured
below the threshold	below the threshold	below the threshold	below the threshold	below the threshold	below the threshold	below the threshold	below the threshold	below the threshold	below the threshold	below the threshold	below the threshold	below the threshold	below the threshold	below the threshold	below the threshold	below the threshold	below the threshold	below the threshold	below the threshold	NHSSSPETTA [TRMT13, Q9NUP7]	pKd (HTRA3, P83110): below the threshold; pKd (SIPA1L2, Q9P2F8): below the threshold; pKd (DLG2_2, Q15700): below the threshold; pKd (MAST1, Q9Y2H9): 3.55; pKd (NOS1, P29475): below the threshold; pKd (MPP7, Q5T2T1): below the threshold
3.82	below the threshold	below the threshold	3.52	4.79	5.53	below the threshold	3.93	below the threshold	3.72	3.62	5.05	5.22	3.49	3.85	4.17	4.94	3.94	3.72	5.2	EVEEFPETSV [TRPV3, Q8NET8]	pKd (HTRA3, P83110): below the threshold; pKd (SIPA1L2, Q9P2F8): 3.55; pKd (DLG2_2, Q15700): 4.2; pKd (MAST1, Q9Y2H9): 4.21; pKd (NOS1, P29475): 4.12; pKd (MPP7, Q5T2T1): 3.57
